Blank lines part the entries; values can stand above or below the binder they belong to.
Tests used:
Experiment in all cases: Luminex, myc-captured LEPR protein on beads, Ab 5 µg/mL
human LEPR CRH2-MMH = target: T1, human LEPR CRH2-MMH (human, UniProt P48357 428-634, limits assumed)
T1 construct: domain: CRH2; Transiently expressed, captured from supernatant on anti-myc beads
T1 sequence (looked up): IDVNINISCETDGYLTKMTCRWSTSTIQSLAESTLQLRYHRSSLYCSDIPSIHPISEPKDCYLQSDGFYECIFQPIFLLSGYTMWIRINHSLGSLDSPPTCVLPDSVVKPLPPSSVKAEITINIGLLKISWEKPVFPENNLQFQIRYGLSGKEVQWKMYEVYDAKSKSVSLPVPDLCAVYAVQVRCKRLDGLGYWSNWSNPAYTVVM
Procedure: (§1) Aliquots of microspheres with immobilized anti-myc monoclonal antibodies, prepared as described above, were added individually to 1 mL of the each of these protein supernatants. The microspheres were gently mixed, incubated for two hours at 25° C., washed twice with 1 mL of DBPS, centrifuged to remove the supernatant and finally resuspended in 1 mL of DPBS buffer. Forty eight μL of anti-myc IgG coupled microspheres from individual reactions with full length human LEPR and with each of the human LEPR domain proteins were withdrawn and mixed together in 3.6 mL of PBS+20 mg/mL BSA+0.05% sodium azide (blocking buffer).
(§2) From this mixed pool, 75 μL of microspheres were plated per well on a 96 well filter plate (Millipore, Cat. No: MSBVN1250) and mixed with 25 μL of individual anti-human LEPR monoclonal antibodies (0.5 or 5 μg/mL), incubated for two hours at 25° C. and then washed twice with 200 μL of DPBS with 0.05% Tween 20 (washing buffer). […] After 30 minutes, the samples were washed twice with 200 μL of washing buffer and resuspended in 150 μL of wash buffer. The Median Fluorescence intensity (MFI) of the microspheres was measured in a Luminex Analyzer.

[1] = target: T2, human LEPR CRH1 (D1,D2)-MMH (human, UniProt P48357 22-339, limits assumed)
T2 construct: domain: CRH1 (D1,D2); Transiently expressed, captured from supernatant on anti-myc beads
T2 sequence (looked up): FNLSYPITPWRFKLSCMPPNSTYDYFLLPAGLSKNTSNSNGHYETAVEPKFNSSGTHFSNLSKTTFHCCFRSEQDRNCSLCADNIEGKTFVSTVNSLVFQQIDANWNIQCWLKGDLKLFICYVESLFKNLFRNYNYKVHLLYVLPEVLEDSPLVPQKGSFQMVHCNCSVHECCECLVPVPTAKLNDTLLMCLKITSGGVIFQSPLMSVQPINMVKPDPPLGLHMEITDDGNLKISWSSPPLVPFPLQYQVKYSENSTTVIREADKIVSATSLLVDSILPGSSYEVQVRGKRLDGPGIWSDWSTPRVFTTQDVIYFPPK
Procedure: as §1, §2

human LEPR CRH1 (D1)-MMH = target: T3, human LEPR CRH1 (D1)-MMH (human, UniProt P48357 22-229, limits assumed)
T3 construct: domain: CRH1 (D1); Transiently expressed, captured from supernatant on anti-myc beads
T3 sequence (looked up): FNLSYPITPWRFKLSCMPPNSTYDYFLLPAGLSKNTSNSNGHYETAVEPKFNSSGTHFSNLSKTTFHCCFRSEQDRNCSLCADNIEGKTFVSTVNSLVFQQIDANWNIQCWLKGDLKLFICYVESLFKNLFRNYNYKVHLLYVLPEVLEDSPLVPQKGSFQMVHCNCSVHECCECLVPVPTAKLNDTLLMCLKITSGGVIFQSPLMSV
Procedure: as §1, §2

[2] = target: T4, recombinant human LEPR extracellular domain expressed with a C-terminal myc-myc-hexahistidine tag (human, UniProt P48357 22-839)
T4 construct: Monomeric construct; also called hLEPR.MMH; hLEPR-MMH
Procedure: as §1, §2

[3] = target: T5, human LEPR CRH1 (D1,D2,D3)-MMH (human, UniProt P48357 22-427, limits assumed)
T5 construct: domain: CRH1-Ig (D1,D2,D3); Transiently expressed, captured from supernatant on anti-myc beads; also called CRH1-Ig (D1, D2, D3)
T5 sequence (looked up): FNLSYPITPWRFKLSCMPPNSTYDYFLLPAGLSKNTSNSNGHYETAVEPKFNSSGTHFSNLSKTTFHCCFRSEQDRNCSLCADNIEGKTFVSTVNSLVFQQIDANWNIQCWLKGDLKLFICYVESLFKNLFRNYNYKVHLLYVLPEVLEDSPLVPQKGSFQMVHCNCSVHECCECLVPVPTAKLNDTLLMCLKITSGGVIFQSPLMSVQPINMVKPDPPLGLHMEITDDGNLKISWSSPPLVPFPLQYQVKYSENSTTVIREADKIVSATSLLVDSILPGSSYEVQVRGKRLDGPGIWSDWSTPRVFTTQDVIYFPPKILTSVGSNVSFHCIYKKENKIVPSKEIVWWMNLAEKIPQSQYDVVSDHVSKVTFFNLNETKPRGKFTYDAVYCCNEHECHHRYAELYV
Procedure: as §1, §2

[4] = target: T6, human LEPR CRH1-Ig (D2,D3)-MMH (human, UniProt P48357 230-427, limits assumed)
T6 construct: domain: CRH1-Ig (D2,D3); Transiently expressed, captured from supernatant on anti-myc beads
T6 sequence (looked up): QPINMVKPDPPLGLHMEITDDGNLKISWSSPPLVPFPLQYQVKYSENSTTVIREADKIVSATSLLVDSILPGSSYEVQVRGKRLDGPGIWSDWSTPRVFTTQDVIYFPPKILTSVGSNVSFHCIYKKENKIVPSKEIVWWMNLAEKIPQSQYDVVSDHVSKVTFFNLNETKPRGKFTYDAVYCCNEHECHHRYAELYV
Procedure: as §1, §2

human LEPR Ig (D3)-MMH = target: T7, human LEPR Ig (D3)-MMH (human, UniProt P48357 340-427, limits assumed)
T7 construct: domain: Ig (D3); Transiently expressed, captured from supernatant on anti-myc beads
T7 sequence (looked up): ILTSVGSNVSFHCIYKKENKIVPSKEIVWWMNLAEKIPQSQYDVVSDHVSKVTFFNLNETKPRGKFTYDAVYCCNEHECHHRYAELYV
Procedure: as §1, §2

B1: H4H18439P2 (antibody, human IgG4, V domains shown)
VH: QLQLQESGPGLVKPSETLSLTCIVSGGDITSSSYYWNWIRQPPGKGLEWIGNIYYSGSTNYNPSLKSRVTISIDTSKSQFSLKLRSVTAADTAVYYCARLLRYFDWSKGYLDYWGQGTLVTVSS
VL: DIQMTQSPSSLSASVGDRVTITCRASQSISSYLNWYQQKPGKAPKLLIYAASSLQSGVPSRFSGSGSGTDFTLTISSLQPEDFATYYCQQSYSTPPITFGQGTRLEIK
notes: H4H prefix: human IgG4 Fc
Luminex MFI (human LEPR CRH2-MMH): 16 MFI | Luminex MFI [1]: 21200 MFI | Luminex MFI (human LEPR CRH1 (D1)-MMH): 11 MFI | Luminex MFI [2]: 5470 MFI | Luminex MFI [3]: 8020 MFI | Luminex MFI [4]: 10000 MFI | Luminex MFI (human LEPR Ig (D3)-MMH): 18 MFI

B3: H4H17322P2 (antibody, human IgG4, V domains shown)
VH: QLQLQESGPGLVKPSETLSLTCTVSGASISSSRFYGGWIRQPPGKGLEWIGDIYYSGNTYYNPSLQSRVTISVDTSKNQFSLKLSSVTAADTAVYYCARHLMITFGGLIVEGFDIWGQGTMVTVSS
VL: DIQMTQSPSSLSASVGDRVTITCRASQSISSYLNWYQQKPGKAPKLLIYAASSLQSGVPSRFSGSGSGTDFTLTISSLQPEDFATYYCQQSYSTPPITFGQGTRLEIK
notes: H4H prefix: human IgG4 Fc
Luminex MFI (human LEPR CRH2-MMH): 19700 MFI | Luminex MFI [1]: 50 MFI | Luminex MFI (human LEPR CRH1 (D1)-MMH): 14 MFI | Luminex MFI [2]: 8930 MFI | Luminex MFI [3]: 31 MFI | Luminex MFI [4]: 58 MFI | Luminex MFI (human LEPR Ig (D3)-MMH): 26 MFI

B4: H4H18440P2 (antibody, human IgG4, V domains shown)
VH: QVQLVESGGGMVKPGGSLRLSCAASGFTFSDYYMSWIRQAPGKGLEWISHISITGSTIYYADSVKGRFTISRDNAKNSLYLEMNRLRDEDTAVYYCTRDEPDIVLVRYGMDVWGQGTTVTVSS
VL: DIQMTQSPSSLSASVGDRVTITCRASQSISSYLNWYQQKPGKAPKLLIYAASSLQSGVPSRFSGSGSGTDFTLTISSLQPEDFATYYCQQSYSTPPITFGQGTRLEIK
notes: H4H prefix: human IgG4 Fc
Luminex MFI (human LEPR CRH2-MMH): 17 MFI | Luminex MFI [1]: 19300 MFI | Luminex MFI (human LEPR CRH1 (D1)-MMH): 8 MFI | Luminex MFI [2]: 7040 MFI | Luminex MFI [3]: 8240 MFI | Luminex MFI [4]: 9160 MFI | Luminex MFI (human LEPR Ig (D3)-MMH): 14 MFI

B5: H4H18437P2 (antibody, human IgG4, V domains shown)
VH: QVQLVESGGGVVQPGRSLRLSCAASGFTFSSYGIHWVRQAPGKGLEWVAVISYDGNNKYYADSVKGRFTISRDNSKNTLYLQMNSLRAEDTAVYYCAKDLFLEWLFHGMGVWGQGTTVTVSS
VL: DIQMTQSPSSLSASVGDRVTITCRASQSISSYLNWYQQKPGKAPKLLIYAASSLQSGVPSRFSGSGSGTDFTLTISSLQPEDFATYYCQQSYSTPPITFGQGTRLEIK
notes: H4H prefix: human IgG4 Fc
Luminex MFI (human LEPR CRH2-MMH): 25 MFI | Luminex MFI [1]: 82 MFI | Luminex MFI (human LEPR CRH1 (D1)-MMH): 21 MFI | Luminex MFI [2]: 8640 MFI | Luminex MFI [3]: 34 MFI | Luminex MFI [4]: 43 MFI | Luminex MFI (human LEPR Ig (D3)-MMH): 26 MFI

Results, then the binder that gave them:

Luminex MFI (human LEPR CRH2-MMH): 24 MFI | Luminex MFI [1]: 5730 MFI | Luminex MFI (human LEPR CRH1 (D1)-MMH): 5380 MFI | Luminex MFI [2]: 5850 MFI | Luminex MFI [3]: 3960 MFI | Luminex MFI [4]: 47 MFI | Luminex MFI (human LEPR Ig (D3)-MMH): 21 MFI
B2: H4H18462P2 (antibody, human IgG4, V domains shown)
VH: EVQLVESGGDLVQPGRSLRLSCAASGFTFSSFAMSWVRQAPGRGLEWVSSLSDSGDNTYYADSVKGRFTISRDNSKNTLYLQMNNLRAEDTAVYYCAKDLFSGWLFHGFDVWGQGTMVTVSS
VL: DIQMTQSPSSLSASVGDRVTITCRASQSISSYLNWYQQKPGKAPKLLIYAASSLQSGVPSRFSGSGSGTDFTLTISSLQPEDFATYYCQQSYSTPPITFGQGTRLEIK
notes: H4H prefix: human IgG4 Fc

Luminex MFI (human LEPR CRH2-MMH): 18 MFI | Luminex MFI [1]: 53 MFI | Luminex MFI (human LEPR CRH1 (D1)-MMH): 13 MFI | Luminex MFI [2]: 7500 MFI | Luminex MFI [3]: 31 MFI | Luminex MFI [4]: 43 MFI | Luminex MFI (human LEPR Ig (D3)-MMH): 18 MFI
B6: H4H18457P2 (antibody, human IgG4, V domains shown)
VH: EVQLVESGGSVVRPGESLRLSCAASGFTFDDYGMSWVRQAPGKGLEWVSGISWNGGITVYADSVKGRFTVSRDNAKNSLYLQMNSLRAEDTALYHCARARYGGADYWGQGTLVTVSS
VL: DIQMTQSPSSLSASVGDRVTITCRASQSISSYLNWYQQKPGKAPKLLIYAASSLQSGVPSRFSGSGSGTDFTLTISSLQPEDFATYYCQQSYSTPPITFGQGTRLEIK
notes: H4H prefix: human IgG4 Fc

Luminex MFI (human LEPR CRH2-MMH): 24 MFI | Luminex MFI [1]: 59 MFI | Luminex MFI (human LEPR CRH1 (D1)-MMH): 13 MFI | Luminex MFI [2]: 9380 MFI | Luminex MFI [3]: 5560 MFI | Luminex MFI [4]: 3740 MFI
B7: H4H18464P2 (antibody, human IgG4, V domains shown)
VH: QVQLVQSGPEVKKPGASVKVSCKGSGYTFSWYGISWIRQAPGHGLEWMGWISASSGNTRFAQKVQGRLTMTTDTSTSTAYMELRSLRSDDTAVYYCARTGTRPFDYWGQGTLVTVSS
VL: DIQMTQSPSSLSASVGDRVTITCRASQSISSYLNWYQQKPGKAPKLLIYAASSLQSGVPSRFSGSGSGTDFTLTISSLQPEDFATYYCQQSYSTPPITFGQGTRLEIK
notes: H4H prefix: human IgG4 Fc

Luminex MFI (human LEPR CRH2-MMH): 17 MFI | Luminex MFI [1]: 56 MFI | Luminex MFI (human LEPR CRH1 (D1)-MMH): 15 MFI | Luminex MFI [2]: 5070 MFI | Luminex MFI [4]: 76 MFI | Luminex MFI (human LEPR Ig (D3)-MMH): 26 MFI
B8: H4H18466P2 (antibody, human IgG4, V domains shown)
VH: EVQLVESGGGLVQPGGSLRLSCTASGFTFSSYGLHWVRQAPGKGLEYVSSINHNGGSKYYADSVKGRFTISRDNSKNTLFLQMGSLKTEDMAVYYCARDLFLEWLFHGFDIWGQGTMVTVSS
VL: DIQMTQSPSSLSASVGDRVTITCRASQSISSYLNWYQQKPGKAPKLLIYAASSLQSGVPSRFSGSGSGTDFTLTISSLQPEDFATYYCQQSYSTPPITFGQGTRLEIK
notes: H4H prefix: human IgG4 Fc
